Results from US20170002079A1.

Target: human ST2 on primary human cells (human) (UniProt Q01638)
Assay: cell-based or functional assay

human ST2 on primary human cells (human), sequence (Q01638 19-556 A78X, form in doubt): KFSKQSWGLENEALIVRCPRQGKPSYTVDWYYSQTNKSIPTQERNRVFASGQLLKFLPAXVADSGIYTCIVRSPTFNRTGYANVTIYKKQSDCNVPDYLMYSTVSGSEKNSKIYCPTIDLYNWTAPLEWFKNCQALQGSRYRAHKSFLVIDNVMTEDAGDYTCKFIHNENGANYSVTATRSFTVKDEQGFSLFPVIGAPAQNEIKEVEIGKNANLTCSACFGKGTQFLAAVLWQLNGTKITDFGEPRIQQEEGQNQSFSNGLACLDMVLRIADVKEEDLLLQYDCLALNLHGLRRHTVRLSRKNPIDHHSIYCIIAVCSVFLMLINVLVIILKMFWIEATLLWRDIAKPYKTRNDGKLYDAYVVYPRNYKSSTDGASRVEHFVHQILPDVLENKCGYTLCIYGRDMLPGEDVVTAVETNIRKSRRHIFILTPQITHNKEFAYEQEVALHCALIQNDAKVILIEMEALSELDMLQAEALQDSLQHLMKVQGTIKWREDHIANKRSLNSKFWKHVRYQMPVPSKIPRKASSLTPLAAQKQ

IC50 (ug/ml), inhibition of IL-33-dependent IFN-γ release from human NK cells (IL-33 10 ng/mL and IL-12): 0.385 µg/mL
Substance: 97203 (antibody)
